Reference: patent publication US11549123B2, “Plant EPSP synthases and methods of use” (PIONEER HI-BRED INTERNATIONAL, INC., priority 2015, dated 2023)
Numbering of substitutions follows the chain as printed. In names and notes the source's numbering stands.

Assays:
[1] = test system: sorghum EPSPS; assay: EPSPS reaction rates at 200 uM PEP and S3P, and at 30 uM substrates with 1 mM glyphosate; assay type: biochemical, Sorghum halepense; details: Sor ha; for Reaction rate, 200 uM, no glyph: PEP and S3P both at 200 uM, no glyphosate; for Reaction rate, 30 uM, 1 mM glyph: substrates at 30 uM, glyphosate at 1 mM
Description: (§1) EPSPS activity was determined by quantifying the phosphate generated from the EPSPS reaction. Release of inorganic phosphate was coupled to reaction with 2-amino-6-mercapto-7-methylpurine ribonucleoside, catalyzed by purine-nucleoside phosphorylase (M R Webb, Proc. Natl. Acad. Sci. 89:4884-4887, 1992). The absorbance change that occurs was monitored at 360 nm, where the extinction is 11,200 M^−1 cm^−1, with a Spectramax plate reader (Molecular Devices). To determine kinetic parameters, the varied substrate was present at seven concentrations (the eighth being the blank, containing no substrate) ranging from 4 to 400 uM and the unvaried substrate present at saturation. Six microliters of 50-fold concentrated stock solutions of the varied substrate were placed in the wells of the 96-well assay plate and reactions were started with the addition of a mixture containing 25 mM Hepes, pH 7, 100 mM KCl, 0.3 mM 2-amino-6-mercapto-7-methylpurine ribonucleosde, 1 uM (1 unit/ml) purine-nucleoside phosphorylase (Sigma N8264) and 200 uM of the non-varied substrate. Reactions were monitored with a Spectramax plate reader. The Michaelis-Menten kinetics protocol of the Spectramax software was customized for the substrate concentrations used. The software returns values of KM and Vmax using the Lineweaver-Burke transformation of the Michaelis-Menten equation. To determine kcat, Vmax (uM/min) was divided by the enzyme concentration (uM). […] KI was then calculated from the following form of the Michaelis-Menten equation for competitive inhibition: KI=KM[I]/(KM app−KM) KM approximates the dissociation constant of the enzyme-substrate complex while kcat is the rate of conversion of substrate to product when the substrate concentration is saturating. kcat/KM is a widely accepted parameter for catalytic efficiency when substrate concentration is low (˜KM). […] The parameter kcat/KM×KI is used to quantify both catalytic efficiency and insensitivity and thus the overall fitness of the enzyme.
Likewise, the mutations present in maize EPSPS 123-C1 (See Table 8) were mapped onto the amino acid sequences of sorghum (SEQ ID NO:23) and the proteins were produced and purified as above.

[2] = test system: Glycine max (93Y21) hairy root; assay: Hairy root growth from transformed soybean cotyledons with or without 25 uM glyphosate; assay type: cell-based; details: constructs containing the UBQ10 promoter
[3] = substrate: C=C(OP(=O)(O)O)C(=O)O; assay: EPSPS substrate saturation kinetics, WT-FS-E; assay type: biochemical, Zea mays; details: other: PEP varied; pH 7.0
Description: as §1, with “reader.” for “reader. The Michaelis-Menten kinetics protocol of the Spectramax software was customized for the substrate concentrations used. The software returns values of KM and Vmax using the Lineweaver-Burke transformation of the Michaelis-Menten equation. To determine kcat, Vmax (uM/min) was divided by the enzyme concentration (uM).”, “enzyme. […]” for “enzyme.”
(§2) The vector DNA of the library was transformed into the BL21(DE3) Tuner AroA knockout strain and the cells were plated onto M9 medium containing 50 mM glyphosate. A small aliquot of the transformed cells was plated on LB, by which it was determined that 1.1×10^8 colony forming units, or 20% of the theoretical library size, were plated and screened. […]

[4] = substrate: C=C(OP(=O)(O)O)C(=O)O; assay: purified protein, by the assay type; details: pH 7.0
[5] = substrate: C=C(OP(=O)(O)O)C(=O)O; assay: EPSPS substrate saturation kinetics, WT-FS-E2; assay type: biochemical, Zea mays; details: other: PEP varied; pH 7.0
Description: as §1, with “reader.” for “reader. The Michaelis-Menten kinetics protocol of the Spectramax software was customized for the substrate concentrations used. The software returns values of KM and Vmax using the Lineweaver-Burke transformation of the Michaelis-Menten equation. To determine kcat, Vmax (uM/min) was divided by the enzyme concentration (uM).”
as §2

[6] = substrate: C=C(OP(=O)(O)O)C(=O)O; assay: EPSPS substrate saturation kinetics, WT-FS-D; assay type: biochemical, Zea mays; details: other: PEP varied; pH 7.0
Description: as §1, with “reader.” for “reader. The Michaelis-Menten kinetics protocol of the Spectramax software was customized for the substrate concentrations used. The software returns values of KM and Vmax using the Lineweaver-Burke transformation of the Michaelis-Menten equation. To determine kcat, Vmax (uM/min) was divided by the enzyme concentration (uM).”, “enzyme. […]” for “enzyme.”
as §2

[7] = substrate: C=C(OP(=O)(O)O)C(=O)O; assay: EPSPS substrate saturation kinetics, WT-FS-B; assay type: biochemical, Zea mays; details: other: PEP varied; pH 7.0
Description: as §1, with “reader.” for “reader. The Michaelis-Menten kinetics protocol of the Spectramax software was customized for the substrate concentrations used. The software returns values of KM and Vmax using the Lineweaver-Burke transformation of the Michaelis-Menten equation. To determine kcat, Vmax (uM/min) was divided by the enzyme concentration (uM).”, “enzyme. […]” for “enzyme.”
as §2

[8] = other: substrate saturation, Zm-P107L
[9] = other: substrate saturation, Zm-G102A
[10] = other: substrate saturation, Zm native

B1: Sor ha C1 mutations: mutated version of the EPSPS sequence from sorghum that contains the 123-C1 mutations (protein)
chain: ARGWEEIVLQPIKEISGTVKLPGSKSLSNRILLLAALSEGTTVVDNLLNSEDVHYMLGALNTLGLSVEADKVAKRAVVVGCGGRFPVEDAKEEVQLFCGNAATAMRPLTAAVTAAGGNATYVLDGVPRMRERPIGDLVVGLKQLGADVDCFLGTDCPPVRINGIGGLPGGKVKLSGSISSQYLSALLMAAPLALGDVEIEIIDKLISLPYVEMTLRLMERFGVKAEHSDSWDRFYIKGGQKYESPKNAYVEGDASSASYFLAGAAITGGTVTVEGCGTTSLQGDVKFAEVLEMMGAKVTWTETSVTVTGPPRQPFGRKHLKAIDVNMNKMPDVAMTLAVVALFADGPTAIRDVASWRVKETERMVAIRTELTKLGASVEEGPDYCIITPPPKLNVTAIDTYGDHRMAMAFSLAACAEVPVTIRDPGCTRKTFPDYFDVLSTFVKN
modifications: Sorghum halapense H6T5X2 with C1 mutations
With B1 as the molecule, how does the “Reaction rate, 200 uM, no glyph” value [1] read?
The value was 356.

What about the “Reaction rate, 30 uM, 1 mM glyph” value [1] of the same molecule?
The value was 60.0.

B2: 868-H6: maize EPSPS with A2R, A4W, A72Q, K84R, L98C, G102A, I208L, T279A, E302S, T361S, E391G, D402G, A416G, V438R, T441Q (protein)
chain: MRGWEEIVLQPIKEISGTVKLPGSKSLSNRILLLAALSEGTTVVDNLLNSEDVHYMLGALRTLGLSVEADKQAKRAVVVGCGGRFPVEDAKEEVQLFCGNAATAMRPLTAAVTAAGGNATYVLDGVPRMRERPIGDLVVGLKQLGADVDCFLGTDCPPVRVNGIGGLPGGKVKLSGSISSQYLSALLMAAPLALGDVEIEIIDKLISLPYVEMTLRLMERFGVKAEHSDSWDRFYIKGGQKYKSPKNAYVEGDASSASYFLAGAAITGGTVTVEGCGTASLQGDVKFAEVLEMMGAKVTWTSTSVTVTGPPREPFGRKHLKAIDVNMNKMPDVAMTLAVVALFADGPTAIRDVASWRVKESERMVAIRTELTKLGASVEEGPDYCIITPPGKLNVTAIDTYGDHRMAMAFSLAACGEVPVTIRDPGCTRKTFPDYFDRLSQFVKN
modifications: maize clone 868-H6
notes: maize EPSPS with A2R, A4W, A72Q, K84R, L98C, G102A, I208L, T279A, E302S, T361S, E391G, D402G, A416G, V438R, T441Q
Which “hairy root growth in the presence of 25 uM glyphosate” value [2] does the source give for B2 here?
Its value is “generated hairy roots”.

B3: 771-C2: maize EPSPS with A4W, H54M, L98C, G102A, K173R, I208L, K243E, E302S, T361S, E391P, D402G, A416G, V438R, S440R, T441Q, F442V (protein)
chain: B2 chain with R2A, H54M, Q72A, R84K, K173R, K243E, A279T, G391P, S440R, F442V
modifications: maize clone 771-C2
notes: maize EPSPS with A4W, H54M, L98C, G102A, K173R, I208L, K243E, E302S, T361S, E391P, D402G, A416G, V438R, S440R, T441Q, F442V
How did the “hairy root growth in the presence of 25 uM glyphosate” value [2] turn out when B3 was run?
Its value is “generated hairy roots”.

B4: Zea mays EPSPS variant WT-FS-E (102A 302S 391G 438R) (Zea mays; E301S/E390G/G101A/V437R) (protein)
chain: MAGAEEIVLQPIKEISGTVKLPGSKSLSNRILLLAALSEGTTVVDNLLNSEDVHYMLGALRTLGLSVEADKAAKRAVVVGCGGKFPVEDAKEEVQLFLGNAATAMRPLTAAVTAAGGNATYVLDGVPRMRERPIGDLVVGLKQLGADVDCFLGTDCPPVRVNGIGGLPGGKVKLSGSISSQYLSALLMAAPLALGDVEIEIIDKLISIPYVEMTLRLMERFGVKAEHSDSWDRFYIKGGQKYKSPKNAYVEGDASSASYFLAGAAITGGTVTVEGCGTTSLQGDVKFAEVLEMMGAKVTWTSTSVTVTGPPREPFGRKHLKAIDVNMNKMPDVAMTLAVVALFADGPTAIRDVASWRVKETERMVAIRTELTKLGASVEEGPDYCIITPPGKLNVTAIDTYDDHRMAMAFSLAACAEVPVTIRDPGCTRKTFPDYFDRLSTFVKN
Which Km [3] does the source give for B4 here?
The Km was 165 µM.

And the kcat [3]?
Its kcat is 6.63 s⁻¹.

And the kcat/Km [3]?
The kcat/Km was 2.41 min^−1uM^−1.

B5: Zea mays EPSPS variant P107L (Zea mays; P106L) (protein)
chain: B4 chain with A102G, P107L, S302E, G391E, R438V
For B5, which Km ([4]; other: PEP varied) is on record?
Its Km is 67.1 µM.

And the Km [4, 8]?
Its Km is 59.7 µM.

What about the kcat [4, 8] of the same molecule?
The kcat was 22.93 s⁻¹.

B6: Zea mays EPSPS variant WT-FS-E2 (102A 302S 391G 438R I208L) (Zea mays; E301S/E390G/G101A/I207L/V437R) (protein)
chain: B4 chain with I208L
How did the Km [5] turn out when B6 was run?
Its Km is 87.7 µM.

What about the kcat [5] of the same molecule?
Its kcat is 9.93 s⁻¹.

What about the kcat/Km [5] of the same molecule?
The kcat/Km was 6.80 min^−1uM^−1.

B7: Zea mays EPSPS variant G102A (Zea mays; G101A) (protein)
chain: B4 chain with S302E, G391E, R438V
How did the Km ([4]; other: PEP varied) turn out when B7 was run?
The Km was 310 µM.

What about the Km [4, 9] of the same molecule?
Its Km is 407 µM.

What about the kcat [4, 9] of the same molecule?
The kcat was 14.3 s⁻¹.

B8: Zea mays EPSPS variant WT-FS-D (101S 107L 302S 338S) (Zea mays; A100S/A337S/E301S/P106L) (protein)
chain: B4 chain with A101S, A102G, P107L, A338S, G391E, R438V
Which results are given for B8?
Km [6]: 20.5 µM; kcat [6]: 30.9 s⁻¹; kcat/Km [6]: 92.3 min^−1uM^−1

B9: Zea mays EPSPS variant WT-FS-B (103I 107S 278G 338S) (Zea mays; A337S/P106S/T102I/T277G) (protein)
chain: B4 chain with A102G, T103I, P107S, T278G, S302E, A338S, G391E, R438V
Which results are given for B9?
Km [7]: 27.7 µM; kcat [7]: 1.62 s⁻¹; kcat/Km [7]: 3.57 min^−1uM^−1

B10: Zea mays EPSPS, native, SEQ ID NO:2 (Zea mays) (protein)
chain: B4 chain with A102G, S302E, G391E, R438V
With B10 as the molecule, how does the Km [4, 10] read?
Its Km is 11.0 µM.

And the kcat [4, 10]?
Its kcat is 17.27 s⁻¹.

B11: Sor ha, native: native EPSPS from sorghum (Sorghum halepense) (protein)
chain: B1 chain with R2A, W4A, R84K, C98L, A102G, L208I, E243K, P391E, G402D
modifications: Sorghum halapense
Which results are given for B11?
Reaction rate, 200 uM, no glyph [1]: 1376; Reaction rate, 30 uM, 1 mM glyph [1]: −2.2
